Data reported in paper PMC3708844 (2013).

B1: SHI1 fused with the N-terminal portion of the luciferase [Arabidopsis thaliana] / FRY2/CPL1 fused with the C-terminal part of the luciferase [Arabidopsis thaliana] (parent complex)
chain 1: MERSRSKRNYHYDQDYDGDSMPRSKPRYNNNYHFGGGGGGNNRYRGGGGGGGGNGRPSKSHPETMATTTYRILCHDAKAGGVIGKSGTIIKSIRQHTGAWINVHELVPGDAERIIEISDNRRRDPDGRMPSFSPAQEALFSVHDRILESEAQFGYGGPPPEEEEDYGGVRPGGGRVVTRLVVSRMHVGCLLGKGGKIIEQMRIETKTHIRILPRESNLPRCVSLSEEIVQIVGELNAVKNALAIVSSRLRESQHRDRSNFQGRSHSPERSFAAAGDDYMPQLRRQSSDRFPRGNFRNNNFSSRQSNYAEEAPAVPVGENVYSEELVFQILCPADKIVRVVGESQGIIDLLQNEIGVDVRVSDPVAGSDEQIITISSEEAPDDPFFPAQEALLHIQTQIIDLIPDKDNLITTRLLVPSRDSICLEGKAGSVSEISRLTGTSVQILAREEIPRCASINDVVIQITGEIRAAREALVELTLLLRSHMFKELSQKETPPASTSTTGPLEGVAGVMEVASSNNTIQSREGPTSSNLNLQQVSTILPQFKEGFGSVAKAGESEHREEVPVTTSRMAVPLVTRSTLEVVLPEAVVPKLVTKSRNKLAQISEWSGASVTIVEDRPEETQNIIRISGTPEQAERAQSLLQGFILSIQEDGP
chain 2: MYSNNRVEVFHGDGRLGELEIYPSRELNQQQDDVMKQRKKKQREVMELAKMGIRISHFSQSGERCPPLAILTTISSCGLCFKLEASPSPAQESLSLFYSSCLRDNKTAVMLLGGEELHLVAMYSENIKNDRPCFWAFSVAPGIYDSCLVMLNLRCLGIVFDLDETLVVANTMRSFEDKIDGFQRRINNEMDPQRLAVIVAEMKRYQDDKNLLKQYIESDQVVENGEVIKVQSEIVPALSDNHQPLVRPLIRLQEKNIILTRINPMIRDTSVLVRMRPSWEELRSYLTAKGRKRFEVYVCTMAERDYALEMWRLLDPEGNLINTNDLLARIVCVKSGFKKSLFNVFLDGTCHPKMALVIDDRLKVWDEKDQPRVHVVPAFAPYYSPQAEAAATPVLCVARNVACGVRGGFFRDFDDSLLPRIAEISYENDAEDIPSPPDVSHYLVSEDDTSGLNGNKDPLSFDGMADTEVERRLKEAISASSAVLPAANIDPRIAAPVQFPMASASSVSVPVPVQVVQQAIQPSAMAFPSIPFQQPQQPTSIAKHLVPSEPSLQSSPAREEGEVPESELDPDTRRRLLILQHGQDTRDPAPSEPSFPQRPPVQAPPSHVQSRNGWFPVEEEMDPAQIRRAVSKEYPLDSEMIHMEKHRPRHPSFFSKIDNSTQSDRMLHENRRPPKESLRRDEQLRSNNNLPDSHPFYGEDASWNQSSSRNSDLDFLPERSVSATETSADVLHGIAIKCGAKVEYKPSLVSSTDLRFSVEAWLSNQKIGEGIGKSRREALHKAAEASIQNLADGYMRANGDPGPSHRDATPFTNENISMGNANALNNQPFARDETALPVSSRPTDPRLEGSMRHTGSITALRELCASEGLEMAFQSQRQLPSDMVHRDELHAQVEIDGRVVGEGVGSTWDEARMQAAERALSSVRSMLGQPLHKRQGSPRSFGGMSNKRLKPDFQRSLQRMPSSGRYS

Variants of: B1
Experiment: split-luciferase complementation assay; co-expressed in Arabidopsis protoplasts; means ± SE (n = 3); parent: 160; read off a plot

Row | Variant | response
1 | chain 1 E389K | ~110 RLU
